Results taken from paper PMC8096265, “A functional LSD1 coregulator screen reveals a novel transcriptional regulatory cascade connecting R-loop homeostasis with epigenetic regulation” (Nucleic Acids Research, 2021).
Ends that are not written are not given here.

Molecular target: T1, GST-DDX19A (recombinant full-length DEAD-box helicase 19A) (UniProt Q9NUU7 1-478)
T1 construct: DEAD-box helicase 19A (DDX19A), expressed from pGEX-DDX19A; Printed both as GST-DDX19A and as DDX19A-GST; no cleavage of GST is described, and the array is detected by anti-GST. pGEX vectors usually put GST at the N-terminus (surmise); also called DDX19A-GST; recombinant DDX19A
T1 sequence (looked up): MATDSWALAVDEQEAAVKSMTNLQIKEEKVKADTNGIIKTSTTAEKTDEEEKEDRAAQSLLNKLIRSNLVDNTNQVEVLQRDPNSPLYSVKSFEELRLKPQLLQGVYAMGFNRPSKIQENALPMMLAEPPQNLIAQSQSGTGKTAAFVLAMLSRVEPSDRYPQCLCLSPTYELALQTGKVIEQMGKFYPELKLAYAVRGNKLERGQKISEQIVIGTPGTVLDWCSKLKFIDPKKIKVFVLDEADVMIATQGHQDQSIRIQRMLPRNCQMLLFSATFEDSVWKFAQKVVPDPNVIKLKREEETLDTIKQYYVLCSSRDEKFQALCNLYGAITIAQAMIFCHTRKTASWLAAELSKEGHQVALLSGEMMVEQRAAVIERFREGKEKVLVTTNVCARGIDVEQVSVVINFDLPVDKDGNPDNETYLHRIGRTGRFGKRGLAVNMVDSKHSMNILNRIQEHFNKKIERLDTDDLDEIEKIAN
Assay: fluorescence polarisation; fluorescence anisotropy; 50 nM FITC-labelled H3.1 (16-34) peptide in 20 mM HEPES pH 7.5, 100 mM KCl, 0.1 mM DTT, 10% glycerol; DDX19A added stepwise; 23°C; fit to a simple binding equilibrium
Conditions: both partners purified

B1: FITC-labelled H3.1 peptide (residues 16-34), unmodified (peptide)
chain: PRKQLATKAARKSAPATGG
modifications: also: FITC label, position not given here
- Kd: > 1000 nM
